Laboratory results from patent publication US20200308575A1 (TWIST BIOSCIENCE, published 2020).
Where a chain is given by its changes, count along the chain named. Like-named read-outs stand apart in the source and are kept apart here.

What was measured:
[1] = molecular target: T1, program cell death protein 1 (PD-1) (UniProt Q15116 25-167, limits assumed); assay: SPR (Carterra LSA), IgG, monovalent affinity
[2] = molecular target: T1, program cell death protein 1 (PD-1); assay: cell-based or functional assay
[3] = molecular target: T1, program cell death protein 1 (PD-1); assay: SPR (Carterra LSA), IgG, monovalent affinity; remark: listed apart in the source

T1 sequence (Q15116 25-167 limits assumed): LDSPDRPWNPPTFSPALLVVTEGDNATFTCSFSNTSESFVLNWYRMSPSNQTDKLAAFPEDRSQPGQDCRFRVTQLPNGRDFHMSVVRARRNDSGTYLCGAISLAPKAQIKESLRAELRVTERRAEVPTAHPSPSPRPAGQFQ

B1: PD1-1 (antibody, V domains shown)
VH: QVQLVQSGAEVKKPGASVKVSCKASGYTFSHYGISWVRQAPGQGLEWMGWVSAYSGNTRYAQKLQGRVTMTTDTSTSTAYMELRSLRSDDTAVYYCARDATYSSGSGYWGQGTLVTVSS
VL: SYELMQPPSVSVSPGQTARITCSGDALPTQYAYWYQQKPGQAPVLVIYQDNERPSGIPERFSGSSSGTTVTLTISGVQAEDEADYYCQSADNSITYRVFGGGTKLTVL
notes: IgG in the assay
**Q.** Which Kd [1] does the source give for B1 here?
**A.** 4.52 nM

**Q.** And the “Bmax (RU) (PD-1/PD-L1 blockade assay)” value [2]?
**A.** 693 RU

**Q.** And the “IC50 (PD-1/PD-L1 blockade assay)” value [2]?
**A.** 0.434 nM

**Q.** What about the Kd [3] of the same binder?
**A.** 4.5 nM

B2: PD1-7 (antibody, V domains shown)
VH: B1 VH with S30T, S35T, V51I, N57S, R59N, T101D, S104I
VL: B1 VL with T29N, Y33F, Q49K
notes: IgG in the assay
**Q.** What does the source list for B2?
**A.** Bmax (RU) (PD-1/PD-L1 blockade assay) [2]: 642 RU; IC50 (PD-1/PD-L1 blockade assay) [2]: 0.896 nM; Kd [3]: 10.5 nM

B3: PD1-2 (antibody, V domains shown)
VH: B1 VH with T28S, H31N, R59N, T101D, S103A
VL: B1 VL with A26E, T29N, Q49K, N51T, E52Q
notes: IgG in the assay
**Q.** For B3, which “Bmax (RU) (PD-1/PD-L1 blockade assay)” value [2] is on record?
**A.** 661 RU

**Q.** What about the “IC50 (PD-1/PD-L1 blockade assay)” value [2] of the same binder?
**A.** 0.848 nM

**Q.** And the Kd [3]?
**A.** 9.8 nM

B4: PD1-8 (antibody, V domains shown)
VH: B1 VH with V51I, A53P, R59K, A100N, T101D
VL: B1 VL with A26E, T29K, Q49K, P54A
notes: IgG in the assay
**Q.** How did the “Bmax (RU) (PD-1/PD-L1 blockade assay)” value [2] turn out when B4 was run?
**A.** 436 RU

**Q.** What about the “IC50 (PD-1/PD-L1 blockade assay)” value [2] of the same binder?
**A.** 1.97 nM

**Q.** And the Kd [3]?
**A.** 78.1 nM
